Data as given in patent US20170166631A1 (NEURIMMUNE, published 2017).

Tests used:
[1] = target: T1, GST-HttExon1Q21 (recombinant huntingtin exon 1 protein with 21 polyQ repeats fused to an N-terminal GST tag) (human, UniProt P08515 1-218 = GST; P42858 1-88); assay: direct ELISA, antigen coated at 5 ug/ml
T1 construct: Expressed in E. coli BL21; also called GST-HD21; soluble GST-HD21; not shown: PreScission cleavage site

[2] = target: T2, HD21 (huntingtin exon 1 protein with 21 polyQ repeats after cleavage of the GST tag; aggregation reaction) (human, UniProt P42858 1-88); assay: direct ELISA (Example 25, FIG. 20)
T2 construct: domain: Exon1; Residues left by the protease site are not described; Aggregated preparation or time-resolved aggregation reaction; also called aggregated HD21; HttExon1Q21

[3] = target: T2, HD21 (huntingtin exon 1 protein with 21 …); assay: direct ELISA, antigen coated at 5 ug/ml
[4] = target: T1, GST-HttExon1Q21 (recombinant huntingtin …); assay: direct ELISA
[5] = target: T3, HD35 (huntingtin exon 1 protein with 35 polyQ repeats after cleavage of the GST tag; aggregation reaction) (human, UniProt P42858 1-88); assay: filter retardation assay (SDS stable aggregates)
T3 construct: domain: Exon1; Residues left by the protease site are not described; Time-resolved aggregation reaction; also called HD35 aggregates; HttExon1Q35

[6] = target: T4, HD49 (huntingtin exon 1 protein with 49 polyQ repeats after cleavage of the GST tag; aggregation reaction) (human, UniProt P42858 1-88); assay: direct ELISA; reference HD21; aggregated or GST-fused form not said
T4 construct: domain: Exon1; Residues left by the protease site are not described; Aggregated preparation or time-resolved aggregation reaction; also called aggregated HD49; aggregated HTT Exon1 HD49
T4 sequence (P42858 other isoform, or with tags, fused parts or gaps limits assumed): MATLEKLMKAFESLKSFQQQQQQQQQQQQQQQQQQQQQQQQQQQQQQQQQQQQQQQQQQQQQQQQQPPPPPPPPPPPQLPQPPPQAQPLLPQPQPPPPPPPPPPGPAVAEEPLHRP

T2 sequence (P42858 1-88 limits assumed, change not shown): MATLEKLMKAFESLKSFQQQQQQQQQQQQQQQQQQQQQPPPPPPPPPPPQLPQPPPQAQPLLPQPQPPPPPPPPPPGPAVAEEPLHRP
T1 sequence (P08515 1-218, tags or fused parts left off): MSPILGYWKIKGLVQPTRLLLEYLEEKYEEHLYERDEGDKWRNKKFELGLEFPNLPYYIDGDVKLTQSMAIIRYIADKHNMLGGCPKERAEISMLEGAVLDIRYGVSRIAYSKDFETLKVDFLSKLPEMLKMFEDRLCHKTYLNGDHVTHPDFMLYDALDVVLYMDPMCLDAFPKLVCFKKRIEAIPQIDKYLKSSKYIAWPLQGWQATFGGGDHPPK
T3 sequence (P42858 other isoform, or with tags, fused parts or gaps limits assumed): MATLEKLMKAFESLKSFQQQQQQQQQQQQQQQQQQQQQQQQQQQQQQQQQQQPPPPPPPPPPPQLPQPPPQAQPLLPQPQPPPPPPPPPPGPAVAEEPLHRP

Binder	binding result [1]	further results
NI-302.8M1 (antibody, V domains shown) VH: EVQLVQSGAEVKKPGASVKVSCKASGYTFTIYYMHWVRQAPGQGLEWMGGISPSGAHTMYAQNFQGRVTVTRDTSTSTVYMELSSLRSEDTAVYYCARGSTVTNYRPFDYWGQGTLVTVSS VL: DIQMTQSPSSLSASVGDRVTITCRASQDISNYLAWYQQKPGKVPKLLIFAASTLQSGVPSRFGGSGSGTDFTLTISSLQPEDVATYYCQNYNSGPPPFGPGTKVDIK	binds	–
NI-302.33C11 (antibody, V domains shown, also called anti-polyP domain antibody) VH: EVQLVESGGGVVQPGNSLRLSCAASGFRFSDFGMHWVRQAPGKGLEWLALIWYDGGYKYYADSVKGRFTISRDNSKNTMFLQMNSLRAEDTAVYYCATHLEYCSRTTCYLGHWGQGTLVTVSS VL: DIQLTQSPSFLSASVGDTVTFTCRASQGISDYLAWFQQKPGIAPKLLIYAASTLQTGVPSRFSGSGSGTEFTLTIRSLQSEDFGTYYCQQLKTYPYTFGQGTKVEIK	–	EC50 [1]: ~0.1 nM
NI-302.6N9 (antibody, human IgG1, V domains shown, Expressed as complete human IgG1) VH: EVQLVESGGDLVQPGGSLRLSCVVSGFTFSSYAMTWVRQAPGKGLAWVSTISATGGSTFYTDSVRGRFTISRDNSKNTLYLQMNSLRTDDTAIYYCVKDLFGVDTSYYGMDVWGQGTTVTVSS VL: EIVLTQSPGTLSLSPGERATLSCRPSQSVSGRYVAWYQQKPGQAPRLLFYAASNRAIGIPDRFSGSGSGTDFTLTISRLEPEDFAVYYCQHYGASSYTFGPGTKVDIK	–	binding result [2]: binds
NI-302.64E5 (antibody, V domains shown) VH: EVQLVETGGGLVKPGGSLRLSCAASGFTFDQAWMSWVRQVPGKGLEWVGRIKTKTEGEATDYAAPVRGRFTISRDDSEDTVFLQMNSLKTEDTALYYCTSTGVLAAAVDVYWGQGTLVTVSS VL: DIQLTQSPDSLAVSLGERATMTCKSSQSLFYSYNNENYLAWYQQRPGQPPKLLIYWASTRESGVPDRFSGSGSGTDFTLTISSLQAEDVAVYYCQQYYSTPQTFGQGTKVDIK	binds	–
NI-302.71F6 (antibody, V domains shown) VH: QVQLQQWGAGLLKPSETLSLTCAVYGGSLSGYYWSWIRQPPGKGLEWIGEVNHSGGTNLNSSLKSRVIISVDKSKKQFSLKLSSVTAADTAMYFCARGYSYDPKYYFDSWSQGTLVTVSS VL: QSALTQPASVSGSPGQAITISCTGTSSDIGSYDFVSWYQQDPGKAPKVIIYGVNKRPSGVSNRFSGSKSGNTASLTISGLQADDEADYYCCSYAGSTTWVFGGGTKLTVL	binds	binding result [3]: binds
NI-302.15E8 (antibody, V domains shown, also called anti-N-terminal domain antibody) VH: EVQLVESGGGLIQPGGSLRLSCAVSGFTVSSYSMNWVRQAPGKGLEWVSYTSSSRSNTKKYADSVKGRFTISRDNARNSLYLQMNSLRDEDTAVYYCARAGDFGELLTGEGYYGMDVWGQGTTVTVSS VL: SYELTQPPSVSVSPGQTATITCSGDELGDKYVGWYQQKPGQSPLLVIYQDAKRPSGIPERFSGSNSGNTATLTISGTQAMDEADYYCQAWDSGTMVFGGGTRLTVL	–	binding result [3]: binds; binding result [4]: binds
NI-302.35C1 (antibody, V domains shown, also called anti-C-terminal domain antibody) VH: EVQLVESGGNLVQPGGSLRLSCTASGFTFSITALSWVRQAPEKGPQWVSAITGNAYGTYYADSVKGRFTISRDNAKNTLYLQMNGLRAEDTAIYYCVKGIASDSSGYSAFWGPGTLVTVSS VL: EIVLTQSPATLSLSPGERATLSCRASQSVDNQFAWYQQKPGQAPRLLIYDASRRAPGIPDRFSGSGSGTDFTLTISSLEPEDFAIYYCQHRYTWLYTFGQGTRLEIK	binds	–
NI-302.74C11 (antibody, V domains shown) VH: EVQLVQSGTEVQKPGASVKVSCKASGYSFTGYFLHWVRQAPGQGLEWMGWINPNSGDTNYAEKFRGRIIMTRDTSVSTAHMELSSLRFDDTALYYCTREAPDPGAETDVWGQGTTVTVSS VL: QSVLTQPPSVSVSPGQTARITCSGDAVPKQYIYWYQQKPGQAPILVIYKDTQRPSGIPERFSGSNSGTTVTLTITGVQADDEGDYYCQSADSSATWVFGGGTKLTVL	binds	binding result [3]: binds
NI-302.44D7 (antibody, human IgG1, V domains shown, Expressed as complete human IgG1) VH: EVQLVQSGGGLVQPGGSLRLSCAASGFTFSSYAMSWVRQAPGKGLEWVSGIGYSDTSTYYADSVKGRFTVSRDISKNTLYLQMNSLRAEDTAVYYCAKGTRDYYGMDVWGQGTMVTVSS VL: QTVVTQEPSFSVSPGGTVTLTCGLSSGSVSTSYYPSWYQQTPGRAPRTLIYSTNTRSSGVPDRFSGSILGNKAALTITGAQADDESDYYCVLFMGSGIGVFGGGTRLTVL	–	binding result [5]: no binding (tested: 0.2 µg/ml primary antibody)
NI-302.55D8 (antibody, V domains shown) VH: QVQLVQSGSEVKKPGASVKVSCKASGYTFTDYYIHWVRQAPGQGLEWMGRINPNNGGTNYAQNFQGWVTMTRDTSISTAYMELSRLRSDDTAVYYCARVGGELLREGGYHYYMDVWGKGTTVTVSS VL: QSVLTQPPSVSGAPGQRVTISCTGNSSNIGAGYDVHWYQQLPGTAPKLLIFDNTNRPSGVPDRFSGSKSGTSASLAITGLQAEDEANYHCQSYDNSLSGSWVFGGGTKLTVL	binds	–
NI-302.15F9 (antibody, human IgG1, V domains shown, Expressed as complete human IgG1) VH: EVQLVESGGGLVTPGGSLRLSCEASGFLFKNSSMNWVRQTPGKGLEWVSSIDTSATNYKYYADSVKGRFTISRDDATNSLYLQMNSLRADDTATYYCARGYYTPRDFDYWGQGTLVTVSS VL: DVVMTQSPQTLSVSLGQAASISCRSSQSLLYRDNNTYLNWFHQRPGQSPRRLIYRASDRDSGVPDRFSGGGSGTDFTLKISGVEAEDVGTYYCMQGTHWPRTFGQGTKVEIK	–	fold preference of HD49 vs. HD21 [6]: ~5 fold
NI-302.7D8 (antibody, V domains shown, also called anti-poly Q/P domain antibody) VH: QVQLVQSGSELKKPGASVKVSCKASGYNFNNYAINWLRQAPGQGLEWMGWINTITGHPTYAQGFKGRFVFSLDTSVSTAYLQISSLKPEDTAVYYCARTYSNYGEFDYWGQGTLVTVSS VL: QSALTQPASVSGSRGQSITISCTGTSSDVGSYNLVSWYQQYPGKAPKLIIHEGSERPSGVSNRFSGSKSGNTASLTISGLQAEDEADYYCCSYAGTTTFVLFGGGTKLTVL	binds	–
NI-302.63F3 (antibody, V domains shown, also called anti-P-rich domain antibody; anti-proline-rich domain antibody) VH: QVQLVQSGSAFKKPGTSVKVSCKASGYTFETRSMNWVRQAPGQGLEYMGWINTNTGNRTYVQAFRGRFVFSLDTSVSTAYLQISNLKTEDTAVYYCARGAGGGYWFDSWGQGTLVTVSS VL: DIQMTQSPDSLAVSLGERATINCKSNQSLFYSSNNNNYLAWYQHKSGQPPKLLVYWGSTRESGVPDRFSGSGSGTDFTLTISSLQAEDVAIYYCHQYYHNPYTFGQGTKLEIK	binds	binding result [3]: binds
NI-302.22H9 (antibody, V domains shown) VH: EVQLVESGGGLVHPWGSLRVSCAASGFSVSNYAITWVRQAPGKGLEYISVIYRDGRTYYGDSVRGRFTISRDDSKNTIYLQMNSLRFEDTAVYYCARAHGQYYYGVDVWGQGTTVTVSS VL: DVVMTQSPLSLSVSPGEPASISCRSSQSLLHSNGYNYLDWYRQKPGQSPQLLIYLNSNRASGVPDRFSGSGSGTEFTLTISRVEAEDVGVYYCMQSLQTFTFGGGTKVEIK	binds	–
NI-302.37C12 (antibody, V domains shown) VH: EVQLVESGGGLVQPGGSLRLSCVASALTVTNSQMTWVRRAPGRGLEWVSVIYTSGSAYYADSVKGRFTISRDNSKNTVFLQMNSLRVEDTAVYYCAKGPSAYYYGLDLWGQGTTVTVSS VL: not shown	binds	binding result [5]: no binding (tested: 0.2 µg/ml primary antibody)
NI-302.11A4 (antibody, V domains shown) VH: EVQLVESGGGLIQPGGSLRLSCAASGFPVSSSYMSWVRQAPGEGLEWVSVLYRDGDTYYADSVQGRFTISRDNSQNTFYLQMNSLKAEDTAVYYCAGDRRSSHYYYGMDVWGQGTTVTVSS VL: EIVMTQSPGTLSLSPGERATLSCRASQSVSSSYFAWYQQKPGQAPRLLIYGTSRRATAIPDRFSGSGSGTDFTLTISRLEPEDFAVYYCQQYGSSWTFGPGTKVEIK	binds	–
NI-302.4A6 (antibody, V domains shown) VH: EVQLVESGGGLVQPGGSLRLSCAASGFTFSAYAMSWVRQAPGKGLEWVSTISGSGGSTYYADSVKGRFSISRDNSKNTLYLQMNSLRAEDTAVYFCAKVTTELYGANSYYYYMDVWGKGTTVTVSS VL: EIVLTQSPGTLSLSPGERATLSCRASQSVVSRYLAWYQQKPGQAPRLLIYGASSRATGIPDRFSGSGSGTDFTLTISRLEPEDFAMYYCQLYGNSQTFGQGTKVEIK	binds	–
